Experimental data published in patent publication US20240254196A1 (MEDYTOX, published 2024).

Legend:
[1] = target: T1, human IL-1β (human, UniProt P01584 117-269); assay: SPR, Biacore T200; binder captured by anti-human Fc, cytokine injected; 1:1 Langmuir
T1 construct: Bought protein; also called hIL-1β
Method: (§1) In order to analyze binding capacity of PET101 to IL-1α and IL-1β more quantitatively, surface plasmon resonance analysis was performed by using Biacore T200 (GE healthcare). A Series S CM5 Sensor Chip (GE healthcare, BR100530) was used to measure the binding constant, and the anti-human Fc antibodies included in the Human Antibody Capture Kit (GE healthcare, BR100839) were immobilized to the sensor chip according to the manufacturer's manual by using an amine coupling kit (GE healthcare, BR100050). Flow cell 1 of the CM5 sensor, to which anti-human Fc antibodies were immobilized, was used as a blank space, and in Flow cells 2, 3, and 4, 100 nM of PET101 (18 μg/ml), 100 nM of rilonacept (25 μg/ml), and 100 nM of canakinumab (15 μg/ml) were respectively loaded for 1 minute at a flow rate of 10 μl/min. After preparation of all the flow cells, 0.25 nM, 0.5 nM, 1 nM, 2 nM, 4 nM, and 8 nM of human IL-1α (R&D systems, 200-LA), human IL-1β (R&D systems, 201-LB), and mouse IL-1α (R&D systems, 400-ML), mouse IL-1β (R&D systems, 401-ML), and rhesus monkey (Rhesus macaque) IL-1β (R&D systems, 1318-RL) antigens were injected at a flow rate of 30 μl/min, to carry out a binding reaction for 4 minutes, subsequently, only 1×HBS-EP+ buffer (GE healthcare, BR100669) was injected at a flow rate of 30 μl/min to perform a dissociation reaction for 10 minutes. Affinity was calculated by performing normalization and subtraction in each acquired sensorgram comparing with the blank cell. The BIAevaluation software (GE healthcare) was used for affinity calculation, and the association rate constant and dissociation rate constant were calculated through the 1:1 Langmuir model analysis. An equilibrium dissociation constant (KD) is a value obtained by dividing the dissociation rate constant (Kd) by the association rate constant (Kₐ).

[2] = target: T2, rhesus monkey (Rhesus macaque) IL-1β (rhesus monkey (Rhesus macaque), UniProt P48090 117-269); assay: as above
T2 construct: Bought protein; also called Monkey IL-1β; monkey IL-1β
Method: as §1

[3] = target: T1, human IL-1β; assay: ELISA, human IL-1β coated at 30 ng/well, detection with anti-human IgG Fc-HRP, OD 450 nm
Method: An analysis of binding of three types of IL-1 specific Fc fusion proteins (rilonacept, IL1T, PET101) to human IL-1β was performed by using an ELISA method. For comparison of binding capacity, human IL-1β antibody canakinumab was used as a control. […] Next day, the plate was washed with Phosphate Buffered Saline with Tween-20 (PBST; TEKNOVA, P1192). All washing procedures in this analysis were performed by using an AquaMax 2000 plate washer (Molecular Devices, 0310-5363). IL1T, PET101, rilonacept, and canakinumab were diluted in PBST containing 1% (w/v) skim milk to an appropriate concentration and treated in each well, binding was induced at room temperature for 1 hour, and plate was washed 3 times. Thereafter, peroxidase-bound anti-human IgG Fc goat antibodies (Invitrogen 31413) were diluted (1:10,000) in PBST containing 1% (w/v) skim milk to induce binding, and washed 3 times with PBST, and then color reaction was induced by treating 3,3′,5,5′-tetramethylbenzidine (TMB) substrate solution (Thermo Fisher Scientific, 34028) in the dark at room temperature. Thereafter, the reaction was terminated by treatment with 1N of sulfuric acid (DUKSAN, 255), and absorbance was measured at 450 nm by using a SpctraMax i3 multimode plate reader (Molecular Devices, 10192-220).

B1: canakinumab (antibody)
chain 1: not shown
chain 2: EIVLTQSPDFQSVTPKEKVTITCRASQSIGSSLHWYQQKPDQSPKLLIKYASQSFSGVPSRFSGSGSGTDFTLTINSLEAEDAAAYYCHQSSSLPFTFGPGTKVDIKRTVAAPSVFIFPPSDEQLKSGTASVVCLLNNFYPREAKVQWKVDNALQSGNSQESVTEQDSKDSTYSLSSTLTLSKADYEKHKVYACEVTHQGLSSPVTKSFNRGEC
Binder B1 has a Kd [1] of 0.0684 nM, a koff [1] of 5.21e-05 s⁻¹ and a kon [1] of 762000 M⁻¹ s⁻¹. For the same binder, the Kd [2] was 2850 nM, the koff [2] was 0.0181 s⁻¹ and the kon [2] was 6350 M⁻¹ s⁻¹. For the same binder, the EC50 [3] was 0.0882 nM.
